According to patent US20160097044A1, “Antimicrobial Enzyme Fusions Reduce Resistance and Kill Intracellular Staphylococcus aureus” (The United States of America, as Represented by the …, priority 2014, published 2016):

Legend:
[1] = system: S. aureus Newbould 305; assay: Turbidity reduction assay; format: cell-based; conditions: 1 μM enzyme, cells at OD600nm 1.0, FIG. 6a
Procedure: (§1) FIG. 6a depicts the specific activity of peptidoglycan hydrolase fusion constructs in vitro in a turbidity reduction assay with S. aureus Newbould 305 resuspended in lysis buffer to an OD600nm of 1.0 and treated with 1 μM final concentrations of each peptidoglycan hydrolase. The maximum specific activity for three experiments are represented as an average with SEM error bars. FIG. 6b depicts the bacterial burden in mice with mastitis treated with recombinant peptidoglycan hydrolases. Colony Forming Units (CFUs) from infected murine mammary glands following a single treatment with 50 μl of 25 μM peptidoglycan hydrolase (1.25 nmol). Each data point represents the average of duplicate bacterial platings. The horizontal bars represent the average CFU/mg for each group. FIG. 6c illustrates the TNFα response in mice with mastitis that were treated with peptidoglycan hydrolases. Data represents a minimum of 7 measurements in duplicate. Log TNFα was used for statistical analysis. Single asterisks indicate a significant difference from buffer control (p<0.05); double asterisks indicate a significant difference from the parental enzyme (p<0.05).
FIG. 7 depicts a turbidity reduction assay of select peptidoglycan hydrolases against S. aureus Newbould 305. Bacterial cells were resuspended in lysis buffer to an OD600nm of 1.0 and lysed with 1 μM final concentrations of each peptidoglycan hydrolase. The maximum rate of ΔOD of three experiments are represented as an average with error bars representing SEM. Double asterisks indicate significant difference from parental. Mean comparisons were performed with one way ANOVA (P=3.3×10^−5) with t test post hoc analysis with Sidák adjusted alpha (p<0.01).

[2] = system: TNFα; assay: Murine model of mastitis, TNFα response; format: in vivo, C57BL6/SJL mice; conditions: single 1.25 nmoles intramammary infusion, after challenge
Procedure: as §1, with “(p<0.05). […]” for “(p<0.05).”
Statistical analysis: The variables were analyzed as two-factor mixed models with Treatment as the factor and Mouse as random Blocks. […]

[3] = bovine, in vivo; cited from earlier work

| Substance | turbidity reduction (in vitro lytic) activity [1] | reduction of TNFα concentration in the mammary tissue [2] [fold] | treatments after which specific antibodies were detectable [3] |
| --- | --- | --- | --- |
| K-L: both LysK lytic domains fused to the N-terminus of lysostaphin; SEQ ID NO:5, protein SEQ ID NO:6 | slightly more effective at lysing S. aureus strain Newbould 305 than lysostaphin |  |  |
| L: 247 amino acid mature (secreted) lysostaphin, staphylolytic bacteriocin, C-terminal His6 tag; SEQ ID NO:1 [reference compound] |  | > 6 | 18-21 treatments |
